Laboratory results from PMC10237651, “Arabidopsis FIN219/JAR1 interacts with phytochrome A under far-red light and jasmonates in regulating hypocotyl elongation via a functional demand manner” (PLOS Genetics, 2023).

Biological target: T1, CBP-PHYA (recombinant full-length PHYA) (Arabidopsis, UniProt P14712 1-1122)
T1 construct: phytochrome A (PHYA), Arabidopsis, At1g09570, full length; coding region cloned into pCAL-n in frame with an upstream CBP tag; Made in E. coli; no chromophore is mentioned; also called CBP-PHYA-F; source: E. coli (BL21), purified (Calmodulin Resin)
T1 sequence (looked up): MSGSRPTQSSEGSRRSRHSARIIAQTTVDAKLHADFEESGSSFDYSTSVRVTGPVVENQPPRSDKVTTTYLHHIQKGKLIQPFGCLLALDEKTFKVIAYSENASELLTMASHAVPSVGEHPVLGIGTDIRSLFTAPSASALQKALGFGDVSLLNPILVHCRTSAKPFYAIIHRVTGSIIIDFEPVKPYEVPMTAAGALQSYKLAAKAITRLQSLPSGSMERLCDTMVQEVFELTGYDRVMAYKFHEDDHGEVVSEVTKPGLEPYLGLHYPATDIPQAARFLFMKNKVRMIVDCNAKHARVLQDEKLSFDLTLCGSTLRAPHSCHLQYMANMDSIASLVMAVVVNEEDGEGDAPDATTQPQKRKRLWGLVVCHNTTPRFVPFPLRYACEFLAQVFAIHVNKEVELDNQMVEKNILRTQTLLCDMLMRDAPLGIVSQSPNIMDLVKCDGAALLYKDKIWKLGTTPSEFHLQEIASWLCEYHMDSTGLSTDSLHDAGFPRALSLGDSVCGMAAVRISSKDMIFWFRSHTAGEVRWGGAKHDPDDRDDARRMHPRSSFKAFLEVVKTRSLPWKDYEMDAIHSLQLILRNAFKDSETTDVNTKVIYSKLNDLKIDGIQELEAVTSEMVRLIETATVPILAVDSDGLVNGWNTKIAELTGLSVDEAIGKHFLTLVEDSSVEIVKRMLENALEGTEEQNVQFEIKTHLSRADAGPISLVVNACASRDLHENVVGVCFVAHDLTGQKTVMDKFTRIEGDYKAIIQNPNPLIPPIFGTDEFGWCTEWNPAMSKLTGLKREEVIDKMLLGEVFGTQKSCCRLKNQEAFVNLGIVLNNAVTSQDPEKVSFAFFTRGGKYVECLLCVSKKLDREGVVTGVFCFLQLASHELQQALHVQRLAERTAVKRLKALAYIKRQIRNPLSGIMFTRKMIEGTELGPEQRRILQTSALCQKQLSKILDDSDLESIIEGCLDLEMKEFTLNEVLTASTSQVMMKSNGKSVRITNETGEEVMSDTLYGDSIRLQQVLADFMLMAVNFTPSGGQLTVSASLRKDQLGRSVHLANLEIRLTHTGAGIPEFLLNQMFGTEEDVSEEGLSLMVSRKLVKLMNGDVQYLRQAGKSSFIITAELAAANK
Assay: pull-down; 1 μg GST-tagged FIN219 protein on 10 μl GST beads overnight at 4°C in 1 ml 1X PBS, then 1 μg CBP-PHYA for 2 h at 4°C; eight washes with 1X PBS; blots with anti-GST and anti-phyA
Conditions: both partners purified

- binding result: binds
B1: GST-FIN219-FL (enzyme, Arabidopsis, UniProt Q9SKE2 1-575, looked up)
chain: MLEKVETFDMNRVIDEFDEMTRNAHQVQKQTLKEILLKNQSAIYLQNCGLNGNATDPEEAFKSMVPLVTDVELEPYIKRMVDGDTSPILTGHPVPAISLSSGTSQGRPKFIPFTDELMENTLQLFRTAFAFRNRDFPIDDNGKALQFIFSSKQYISTGGVPVGTATTNVYRNPNFKAGMKSITSPSCSPDEVIFSPDVHQALYCHLLSGILFRDQVQYVFAVFAHGLVHAFRTFEQVWEEIVTDIKDGVLSNRITVPSVRTAMSKLLTPNPELAETIRTKCMSLSNWYGLIPALFPNAKYVYGIMTGSMEPYVPKLRHYAGDLPLVSHDYGSSEGWIAANVTPRLSPEEATFAVIPNLGYFEFLPVSETGEGEEKPVGLTQVKIGEEYEVVITNYAGLYRYRLGDVVKVIGFYNNTPQLKFICRRNLILSINIDKNTERDLQLSVESAAKRLSEEKIEVIDFSSYIDVSTDPGHYAIFWEISGETNEDVLQDCCNCLDRAFIDAGYVSSRKCKTIGALELRVVAKGTFRKIQEHFLGLGSSAGQFKMPRCVKPSNAKVLQILCENVVSSYFSTAF
notes: FIN219/JAR1, Arabidopsis, At2g46370, full length; also called full-length FIN219; source: E. coli, purified (Glutathione Sepharose 4B)
